Two molecules from publication PMC8724787 can be followed below.

This test concerns the target DENV1 strain Hawaii envelope (E) protein on virions (Dengue virus 1 (strain Hawaii)). The experiment in a line: ELISA; apparent. Background: In an ELISA, binding on a coated surface is turned into a signal by an enzyme label.

Where two headings read alike, the source gives them in different places.

B1: C10 intact bivalent IgG1 (human monoclonal antibody EDE1 C10) (protein)
chain 1: EVQLVESGAEVKKPGASVKVSCKASGYTFTSYAMHWVRQAPGQRLEWMGWINAGNGNTKYSQKFQDRVTITRDTSASTAYMELSSLRSEDTAIYYCARDKVDDYGDYWFPTLWYFDYWGQGTLVTVSS
chain 2: QSALTQPASVSGSPGQSITISCTGTSSDVGGFNYVSWFQQHPGKAPKLMLYDVTSRPSGVSSRFSGSKSGNTASLTISGLQAEDEADYYCSSHTSRGTWVFGGGTKLTVL
Take B1: the Kd worked out at 2.6 nM.

B2: C10 monovalent antigen binding fragment (Fab) (protein)
chain 1: B1 chain 1
chain 2: B1 chain 2
Take B2: the Kd (Fab) is 9.85 nM.
